From paper PMC4872098 come the findings set out here.

Data set [1] deals with T1, Rbfox RRM (109-208) (Homo sapiens, UniProt Q9NWB1 109-208).
T1 sequence: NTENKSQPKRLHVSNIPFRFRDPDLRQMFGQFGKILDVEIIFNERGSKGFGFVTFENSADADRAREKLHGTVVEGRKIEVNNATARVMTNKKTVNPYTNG
The data set is described as follows: EMSA. Background: Mobility shift assays separate free from complexed probe on a gel.

The target of data set [2] is T1, Rbfox RRM (109-208). Briefly: NMR.
The target in the next data set is T2, Rbfox1 RRM (109-225) (Homo sapiens, UniProt Q9NWB1 109-225).
T2 sequence: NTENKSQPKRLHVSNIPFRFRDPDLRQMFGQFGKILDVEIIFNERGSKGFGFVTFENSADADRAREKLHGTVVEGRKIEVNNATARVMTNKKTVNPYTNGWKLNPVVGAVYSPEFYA
Briefly: NMR.

B1: pre-miR-20b full-length (structured_RNA)
RNA: AGUACCAAAGUGCUCAUAGUGCAGGUAGUUUUGGCAUGACUCUACUGUAGUAUGGGCACUUCCAGUACU
The term Kd denotes the constant that tells how readily two partners part at equilibrium. High values mean a looser complex, low ones a tighter complex. With B1, the Kd with Rbfox RRM (109-208) [1] is around 50 nM.

B2: pre-miR-20b 46-nt (G7-C52) (structured_RNA)
RNA: GCUCAUAGUGCAGGUAGUUUUGGCAUGACUCUACUGUAGUAUGGGC
For B2, in the data set with Rbfox RRM (109-208) [2], the binding result is listed as “binds”.

B3: pre-miR-20b 46-nt, 4-thio-U43 spin-labeled (structured_RNA)
RNA: GCUCAUAGUGCAGGUAGUUUUGGCAUGACUCUACUGUAGUAUGGGC
modifications: 4-thiouridine at U43 carrying spin label
Regarding B3, the binding result with Rbfox1 RRM (109-225) is “binds”.
